Reference: article PMC5538626 (EMBO Reports, 2017)
Ends that are not written are not given here.

What was measured:
Experiment in all cases: ELISA; called peptide array: biotinylated peptides immobilised on streptavidin-coated 96-well plates; 1 μM His6-mATG8 in PBS, 0.1% Tween-20, 1% BSA, 1 h, 8°C; anti-His-HRP, TMB, absorbance at 450 nm
Conditions in all cases: both partners purified
6xHis‐tagged GABARAP = target: T1, 6xHis‐tagged GABARAP (human, UniProt O95166 1-117)
T1 construct: GABARAP, human; also called His6‐GABARAP; source: E. coli, isolated
T1 sequence (O95166 whole entry): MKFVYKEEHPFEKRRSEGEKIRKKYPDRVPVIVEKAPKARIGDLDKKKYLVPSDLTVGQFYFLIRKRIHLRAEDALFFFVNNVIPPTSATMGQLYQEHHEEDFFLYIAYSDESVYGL

6xHis‐tagged LC3B = 6xHis‐tagged LC3B (human, UniProt Q9GZQ8 1-120)
6xHis‐tagged GABARAP‐L2 = target: T2, 6xHis‐tagged GABARAP‐L2 (human, UniProt P60520 1-117)
T2 construct: GABARAP-L2/GATE-16, human; also called His6‐GABARAP‐L2; GATE‐16; source: E. coli, isolated
T2 sequence (P60520 whole entry): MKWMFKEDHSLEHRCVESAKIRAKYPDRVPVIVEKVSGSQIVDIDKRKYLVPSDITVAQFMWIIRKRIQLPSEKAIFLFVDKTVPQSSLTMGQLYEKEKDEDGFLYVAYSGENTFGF

6xHis‐tagged GABARAP‐L1 = target: T3, 6xHis‐tagged GABARAP‐L1 (human, UniProt Q9H0R8 1-117)
T3 construct: GABARAP-L1, human; also called His6‐GABARAP‐L1; source: E. coli, isolated
T3 sequence (Q9H0R8 whole entry, looked up): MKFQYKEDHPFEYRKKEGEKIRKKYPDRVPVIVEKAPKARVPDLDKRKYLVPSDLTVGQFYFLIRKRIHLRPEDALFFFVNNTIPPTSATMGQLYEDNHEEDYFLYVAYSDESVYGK

Binder	binding result (6xHis‐tagged GABARAP)	binding result (6xHis‐tagged LC3B)	binding result (6xHis‐tagged GABARAP‐L2)	binding result (6xHis‐tagged GABARAP‐L1)
RKEWEELFV (also: biotinylated, TBC1D5 LIR1; source: bought: JPT (biotinylated peptide)) [TBC1D5 (LIR1) peptide (55–63), biotinylated]	binds	–	–	–
DRMWLKITI (also: biotinylated, DVL2 LIR; source: bought: JPT (biotinylated peptide)) [DVL2 LIR peptide (441–449), biotinylated]	binds	binds	–	–
GDDFELLDQ (also: biotinylated, FAM134B LIR; source: bought: JPT (biotinylated peptide)) [FAM134B LIR peptide (452–460), biotinylated]	binds	binds	–	–
DDSYEVLDL (also: biotinylated, FUNDC1 LIR; source: bought: JPT (biotinylated peptide)) [FUNDC1 LIR peptide (printed positions 152–160), biotinylated]	–	binds	–	–
EDEWVKVQY (peptide, UniProt Q9Y4G2 632-640, looked up, also: biotinylated, PLEKHM1 LIR; source: bought: JPT (biotinylated peptide)) [PLEKHM1‐LIR N637K peptide (biotinylated 9-mer)]	binds	–	binds	binds
EDEWVRVQY (peptide, UniProt Q9Y4G2 632-640, looked up, also: biotinylated, PLEKHM1 LIR; source: bought: JPT (biotinylated peptide)) [PLEKHM1‐LIR N637R peptide (biotinylated 9-mer)]	binds	–	binds	binds
DDEWILVDF (also: biotinylated, TP53INP1 LIR; source: bought: JPT (biotinylated peptide)) [TP53INP1 LIR peptide (28–36), biotinylated]	binds	binds	–	–
NSSWVELPM (also: biotinylated, NIX LIR; also called Nix/BNIP3L; source: bought: JPT (biotinylated peptide)) [NIX/BNIPL3 LIR peptide (33–41), biotinylated]	binds	binds	–	–
EEDILVVTT (also: biotinylated, NDP52 LIR; source: bought: JPT (biotinylated peptide)) [NDP52 LIR peptide (130–138), biotinylated]	binds	binds	–	–
HDDFVMIDF (also: biotinylated, ATG13 LIR; source: bought: JPT (biotinylated peptide)) [ATG13 LIR peptide (441–449), biotinylated]	binds	–	–	–
LEDWDIISP (also: biotinylated, TBC1D25 LIR; source: bought: JPT (biotinylated peptide)) [TBC1D25 LIR peptide (133–141), biotinylated]	binds	binds	–	–
TLTYDTLRF (also: biotinylated, ATG4B LIR; source: bought: JPT (biotinylated peptide)) [ATG4B LIR peptide (4–12), biotinylated]	binds	binds	–	–
EDEWVGVQY (peptide, UniProt Q9Y4G2 632-640, looked up, also: biotinylated, PLEKHM1 LIR; source: bought: JPT (biotinylated peptide)) [PLEKHM1‐LIR N637G peptide (biotinylated 9-mer)]	binds	–	binds	binds
TPDWIFLLR (also: biotinylated, Clathrin HC1 LIR; source: bought: JPT (biotinylated peptide)) [Clathrin HC1 LIR peptide (511–519), biotinylated]	binds	–	–	–
SRVYQMILE (also: biotinylated, printed as MAP15K; source: bought: JPT (biotinylated peptide)) [MAP15K LIR peptide (337–345), biotinylated]	binds	binds	–	–
EDEWVNAQY (peptide, UniProt Q9Y4G2 632-640, looked up, also: biotinylated, PLEKHM1 LIR; source: bought: JPT (biotinylated peptide)) [PLEKHM1‐LIR V638A peptide (biotinylated 9-mer)]	binds	–	binds	–
EDDWDFLPP (also: biotinylated, Calreticulin LIR; source: bought: JPT (biotinylated peptide)) [Calreticulin LIR peptide (197–205), biotinylated]	binds	binds	–	–
SFGWLSLDG (also: biotinylated, c-CBL LIR; source: bought: JPT (biotinylated peptide)) [c‐CBL LIR peptide (799–807), biotinylated]	binds	binds	–	–

Binder	binding result (6xHis‐tagged GABARAP)	binding result (6xHis‐tagged LC3B)	binding result (6xHis‐tagged GABARAP‐L2)	binding result (6xHis‐tagged GABARAP‐L1)
EDSFVEIRM (also: biotinylated, OPTN LIR; source: bought: JPT (biotinylated peptide)) [OPTN LIR peptide (175–183), biotinylated]	binds	–	–	–
DLEDEWEVI (also: biotinylated, TECPR2 LIR; source: bought: JPT (biotinylated peptide)) [TECPR2 LIR peptide (1403–1411), biotinylated]	binds	binds	–	–
ESDWVAVRP (also: biotinylated, JMY LIR; source: bought: JPT (biotinylated peptide)) [JMY LIR peptide (10–18), biotinylated]	binds	–	–	–
HEEWEMVPR (also: biotinylated, STBD1 LIR; source: bought: JPT (biotinylated peptide)) [STBD1 LIR peptide (200–208), biotinylated]	binds	–	–	–
DAVFDIITD (also: biotinylated, FYCO1 LIR; source: bought: JPT (biotinylated peptide)) [FYCO1 LIR peptide (1277–1285), biotinylated]	binds	binds	–	–
EDEWVAVQY (peptide, UniProt Q9Y4G2 632-640, looked up, also: biotinylated, PLEKHM1 LIR; source: bought: JPT (biotinylated peptide)) [PLEKHM1‐LIR N637A peptide (biotinylated 9-mer)]	binds	–	binds	binds
SEDYIIILP (also: biotinylated, NBR1 LIR; source: bought: JPT (biotinylated peptide)) [NBR1 LIR peptide (729–737), biotinylated]	binds	–	–	–
TDDFVMVPA (also: biotinylated, ULK1 LIR; source: bought: JPT (biotinylated peptide)) [ULK1 LIR peptide (354–362), biotinylated]	binds	–	–	–
PSHWPLIKA (also: biotinylated, β-Catenin LIR; source: bought: JPT (biotinylated peptide)) [β‐Catenin LIR peptide (501–509), biotinylated]	binds	binds	–	–
EDEWANVQY (peptide, UniProt Q9Y4G2 632-640, looked up, also: biotinylated, PLEKHM1 LIR; source: bought: JPT (biotinylated peptide)) [PLEKHM1‐LIR V636A peptide (biotinylated 9-mer)]	binds	–	binds	–
TDDFVLVPH (also: biotinylated, ULK2 LIR; source: bought: JPT (biotinylated peptide)) [ULK2 LIR peptide (350–358), biotinylated]	binds	–	–	–
VDGWLIIDL (also: biotinylated, TP53INP2/DOR LIR; source: bought: JPT (biotinylated peptide)) [TP53INP2/DOR LIR peptide (32–40), biotinylated]	binds	binds	–	–
TFDFETIPH (also: biotinylated, FIP200 LIR; source: bought: JPT (biotinylated peptide)) [FIP200 LIR peptide (699–707), biotinylated]	binds	binds	–	–
DDFWVRVAP (also: biotinylated, KBTBD6 in the text; also called KBTBD6; KBTDB6; source: bought: JPT (biotinylated peptide)) [KTBD6 LIR peptide (665–673), biotinylated]	binds	–	–	–
NSDMLVVTT (also: biotinylated, Tax1BP1 LIR; source: bought: JPT (biotinylated peptide)) [Tax1BP1 LIR peptide (137–145), biotinylated]	binds	binds	–	–
EDEWVPVQY (peptide, UniProt Q9Y4G2 632-640, looked up, also: biotinylated, PLEKHM1 LIR; source: bought: JPT (biotinylated peptide)) [PLEKHM1‐LIR N637P peptide (biotinylated 9-mer)]	binds	–	binds	binds
DSGFTIVSP (also: biotinylated, TBC1D5 LIR2; source: bought: JPT (biotinylated peptide)) [TBC1D5 (LIR2) peptide (785–793), biotinylated]	binds	binds	–	–
